{
  "source": "patent US20080279838",
  "about": "“Reconstructed Human Mariner Transposon Capable of Stable Gene Transfer Into Chromosomes in Vertebrates” (published 2008)",
  "target": "T1, Hsmar1-Prime transposase (Hsmar1-P) (Homo sapiens, UniProt Q53H47 SEQ:1-343)",
  "T1 chain": "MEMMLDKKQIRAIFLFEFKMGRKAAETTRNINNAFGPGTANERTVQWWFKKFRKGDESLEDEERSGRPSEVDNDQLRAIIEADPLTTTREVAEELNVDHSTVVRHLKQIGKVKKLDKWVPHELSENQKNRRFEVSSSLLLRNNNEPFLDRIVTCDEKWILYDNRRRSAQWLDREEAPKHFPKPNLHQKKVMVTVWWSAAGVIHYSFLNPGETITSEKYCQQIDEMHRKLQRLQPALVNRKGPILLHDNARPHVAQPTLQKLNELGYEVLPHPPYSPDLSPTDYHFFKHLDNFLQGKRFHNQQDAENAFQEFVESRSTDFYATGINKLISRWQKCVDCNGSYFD",
  "experiment": "cell_activity; HeLa cells, donor pHsmar1/neo plus helper; excision with 3 bp footprint, integration at TA",
  "settings": "tags: expressed from pFV-4a helper plasmid; chain copies: 2; 30 bp terminal inverted repeats in plasmid donor",
  "data": [
    {"binder": "Hsmar1 transposon inverted repeats (left IR / right IR, flanking SV40-neo in pHsmar1/neo) (dsDNA) DNA 1: TTAGGTTGGTGCAAAAGTAATTGCGGTTTT DNA 2: AAAACCGCAATTACTTTTGCACCAACCTAA", "values": [
      {"measurement": "activity", "result": "~20 fold increase in G418-resistant colonies"}
    ]}
  ]
}
